Results taken from patent publication US11110158B2, “Prostate-associated antigens and vaccine-based immunotherapy regimens” (Pfizer Inc., priority 2012, dated 2021).

B1: PSA membrane-bound: PSA amino acids 25-261 linked to human PSMA transmembrane domain (aa 15-54), SEQ ID NO: 19 (protein)
chain: MASARRPRWLCAGALVLAGGFFLLGFLFGWFIKSSNEATNITPGIVGGWECEKHSQPWQVLVASRGRAVCGGVLVHPQWVLTAAHCIRNKSVILLGRHSLFHPEDTGQVFQVSHSFPHPLYDMSLLKNRFLRPGDDSSHDLMLLRLSEPAELTDAVKVMDLPTQEPALGTTCYASGWGSIEPEEFLTPKKLQCVDLHVISNDVCAQVHPQKVTKFMLCAGRWTGGKSTCSGDSGGPLVCNGVLQGITSWGSEPCALPERPSLYTKVVHYRKWIKDTIVANP
B2: PSA secreted: native full length human PSA (amino acids 1-261), SEQ ID NO: 15 (protein, listed as Homo sapiens)
chain: MASWVPVVFLTLSVTWIGAAPLILSRIVGGWECEKHSQPWQVLVASRGRAVCGGVLVHPQWVLTAAHCIRNKSVILLGRHSLFHPEDTGQVFQVSHSFPHPLYDMSLLKNRFLRPGDDSSHDLMLLRLSEPAELTDAVKVMDLPTQEPALGTTCYASGWGSIEPEEFLTPKKLQCVDLHVISNDVCAQVHPQKVTKFMLCAGRWTGGKSTCSGDSGGPLVCNGVLQGITSWGSEPCALPERPSLYTKVVHYRKWIKDTIVANP

System: PSA
Experiment: Sandwich ELISA, anti-PSA antibody response in vaccinated mice
Assay type: in vivo, mouse
Conditions: Table 15; for # of positive: mice with anti-PSA antibody response / mice tested

Molecule	ELISA (OD = 1.0) Average (SD) (anti-PSA antibody titer at OD of 1.0)	# of positive
B1	4838 (835)	6/6
B2	–	2/6
